Experimental data from article PMC8687477 (2021).

Experiments:
[1] = molecular target: T1, SARS-CoV-2 nucleocapsid protein (N), 2X-StrepTag tagged (SARS-CoV-2, UniProt P0DTC9 1-419); experiment: BLI
[2] = molecular target: T1, SARS-CoV-2 nucleocapsid protein (N), …; experiment: BLI; remark: listed apart in the source

Binder | koff [1] [s⁻¹] | Kd [2] [nM]
recombinant human CXCL9 (ligand) TPVVRKGRCSCISTNQGTIHLQSLKDLKQFAPSPSCEKIEIIATLKNGVQTCLNPDSADVKELIKKWEKQVSQKKKQKNGKKHQKKKVLKVRKSQRSRQKKTT | 0.00085 | 12
recombinant human CCL5 (ligand) SPYSSDTTPCCFAYIARPLPRAHIKEYFYTSGKCSNPAVVFVTRKNRQVCANPEKKWVREYINSLEMS | 0.00019 | 
recombinant human CCL28 (ligand) SEAILPIASSCCTEVSHHISRRLLERVNMCRIQRADGDCDLAAVILHVKRRRICVSPHNHTVKQWMKVQAAKKNGKGNVCHRKKHHGKRNSNRAHQGKHETYGHKTPY | 0.00087 | 22
recombinant human CXCL11 (ligand) FPMFKRGRCLCIGPGVKAVKVADIEKASIMYPSNNCDKIEVIITLKENKGQRCLNPKSKQARLIIKKVERKNF | 0.0033 | 130
recombinant human CCL11 (ligand) not shown | 0.0045 | 72
recombinant human CCL26 (ligand) TRGSDISKTCCFQYSHKPLPWTWVRSYEFTSNSCSQRAVIFTTKRGKKVCTHPRKKWVQKYISLLKTPKQL | 0.00093 | 26
recombinant human CXCL4 (ligand) EAEEDGDLQCLCVKTTSQVRPRHITSLEVIKAGPHCPTAQLIATLKNGRKICLDLQAPLYKKIIKKLLES | 0.00053 | 170
recombinant human CCL21 (ligand) SDGGAQDCCLKYSQRKIPAKVVRSYRKQEPSLGCSIPAILFLPRKRSQAELCADPKELWVQQLMQHLDKTPSPQKPAQGCRKDRGASKTGKKGKGSKGCKRTERSQTPKGP | 0.0014 | 14
recombinant human CXCL14 (ligand) SKCKCSRKGPKIRYSDVKKLEMKPKYPHCEEKMVIITTKSVSRYRGQEHCLHPKLQSTKRFIKWYNAWNEKRRVYEE | 0.0019 | 45
